Experimental data: patent publication US20250206846A1 (YEDA RESEARCH AND DEVELOPMENT, published 2025)
Where no end group is shown, it is not given here.

What was measured:
recombinant human KLK4 = biological target: T1, recombinant human KLK4 (human, UniProt Q9Y5K2 31-253); test: ELISA, plate coated with KLK4; target: full KLK4
T1 construct: also called Kallikrein-4; Full KLK4
Experimental: (§1) ELISA binding assay: A ninety-six-well plate (Nunc) was coated with KLK4 and Loop-KLK4 at 10 µg/ml. After blocking with 2% BSA in PBS, the plate was incubated with the antibodies for 1 h at 37° C. Bound antibodies were detected by peroxidase-conjugated antibody goat anti-human (Jackson ImmunoResearch). EC₅₀ was calculated with GraphPad Prism from […] curve fitting analysis.
(§2) Interaction of KLK4 monoclonal antibody was tested by ELISA using KLK4 & KLK4-Loop3. As a control, anti-GST monoclonal antibody was used.

[1] = biological target: T2, Loop-KLK4 synthetic cyclized peptide (CGLHSLEADQEPGSCC) (human, bridge (positions not given here); also: cyclized, chemistry not given here); test: ELISA, plate coated with Loop-KLK4 peptide; target: Loop3-KLK4 peptide
T2 construct: The peptide was coupled to KLH for immunization and to BSA for the ELISA tests of sera; no carrier is stated there; also called Loop3-KLK4; KLK4-Loop3
T2 peptide: CGLHSLEADQEPGSCC
Experimental: as §1, §2

T1 sequence (Q9Y5K2 31-253 H197Q limits assumed): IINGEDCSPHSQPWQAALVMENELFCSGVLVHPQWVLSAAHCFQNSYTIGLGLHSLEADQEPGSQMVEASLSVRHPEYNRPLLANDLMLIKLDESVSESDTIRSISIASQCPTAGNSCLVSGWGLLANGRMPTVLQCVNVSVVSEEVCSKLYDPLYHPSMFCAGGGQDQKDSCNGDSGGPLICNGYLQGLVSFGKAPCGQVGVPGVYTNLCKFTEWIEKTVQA

B1: anti-KLK4 monoclonal antibody (antibody, IgG1, V domains shown)
VH: EVQLVESGGGLVQPKGSLKLSCAASGFTFKTYAMTWVRQTPGKGLEWVARIRNKNNNYATFYADSVKDRFTISRDDSQSMLYLLMNNLKTEDTAIYYCVRVNYWYFDVWGAGTTVTVSS
VL: EIVMTQSTAIMSASPGEKVTMTCRASSSVSSTYLHWYQQKSGASPKLWIYSTSNLASGVPARFSGSGSGTSYSLTVSSVEAEDAATYYCQQYSSYPLTFGGGTKLEIK
notes: Monoclonal antibody from a hybridoma of immunized balb-c mice; also called anti-KLK4 antibody
B1 gave an EC50 (recombinant human KLK4) of 0.272 nM and an EC50 [1] of 0.271 nM.
